Source: PMC6511843

B1: HA.ELK-1 [not stated] / recombinant core^SRF [not stated] (parent)
chain 1: MDPSVTLWQFLLQLLREQGNGHIISWTSRDGGEFKLVDAEEVARLWGLRKNKTNMNYDKLSRALRYYYDKNIIRKVSGQKFVYKFVSYPEVAGCSTEDCPPQPEVSVTSTMPNVAPAAIHAAPGDTVSGKPGTPKGAGMAGPGGLARSSRNEYMRSGLYSTFTIQSLQPQPPPHPRPAVVLPSAAPAGAAAPPSGSRSTSPSPLEACLEAEEAGLPLQVILTPPEAPNLKSEELNVEPGLGRALPPEVKVEGPKEELEVAGERGFVPETTKAEPEVPPQEGVPARLPAVVMDTAGQAGGHAASSPEISQPQKGRKPRDLELPLSPSLLGGPGPERTPGSGSGSGLQAPGPALTPSLLPTHTLTPVLLTPSSLPPSIHFWSTLSPIAPRSPAKLSFQFPSSGSAQVHIPSISVDGLSTPVVLSPGPQKP
chain 2: SGAKPGKKTRGRVKIKMEFIDNKLRRYTTFSKRKTGIMKKAYELSTLTGTQVLLLVASETGHVYTFATRKLQPMITSETGKALIQTCLNSP

Variants of: B1
Test: EMSA (ternary complex with coreSRF on radio-labelled SRE probe), densitometry
Settings: parent: 100, read off a plot

percent of parent (% of ELK-1 (WT = 100))	Variant
11	chain 1 K59R
51	chain 1 K50R K52R
